This is an account of results in PMC11685456, “Structural insights into GrpEL1-mediated nucleotide and substrate release of human mitochondrial Hsp70” (Nature Communications, 2024).

Data set [1] has as its target T1, human mortalin R126W (mitochondrial Hsp70, HSPA9), without its mitochondrial targeting sequence (human, UniProt P38646 47-679, R126W).
T1 construct: mortalin (mitochondrial Hsp70, HSPA9), human; printed mass 70.2 kDa; R126W is associated with EVEN-PLUS syndrome; residues 46-639 were modelled in the cryo-EM map; No tag removal is described; also called Hsmortalin_(R126W); mtHsp70; source: E. coli LOBSTR, co-expressed with HsHep1, purified (HisTrap, HiTrap Q, Superdex 200)
Nature of the data set: SEC-MALS; the mortalin_(R126W)-GrpEL1 complex; 152.5 kDa species. The following applies: both partners purified.

Data set [2] deals with the molecule itself. Nature of the data set: cryo-EM structure; high molecular weight SEC peak concentrated and vitrified on UltraAuFoil grids; Titan Krios G4, 300 keV; nucleotide-free complexes.
Data set [3] addresses T1, human mortalin R126W (mitochondrial …). In words: SEC; purified mortalin (20 uM), GrpEL1 (40 uM) and Pam16/Pam18 chimera (12 uM) incubated 1 h at room temperature, then Superdex 200 Increase 10/300 GL in 20 mM Tris pH 8, 150 mM KCl, 0.5 mM TCEP; fractions seen by SDS-PAGE. The settings on record: both partners purified.

T1 sequence (P38646 47-679 R126W): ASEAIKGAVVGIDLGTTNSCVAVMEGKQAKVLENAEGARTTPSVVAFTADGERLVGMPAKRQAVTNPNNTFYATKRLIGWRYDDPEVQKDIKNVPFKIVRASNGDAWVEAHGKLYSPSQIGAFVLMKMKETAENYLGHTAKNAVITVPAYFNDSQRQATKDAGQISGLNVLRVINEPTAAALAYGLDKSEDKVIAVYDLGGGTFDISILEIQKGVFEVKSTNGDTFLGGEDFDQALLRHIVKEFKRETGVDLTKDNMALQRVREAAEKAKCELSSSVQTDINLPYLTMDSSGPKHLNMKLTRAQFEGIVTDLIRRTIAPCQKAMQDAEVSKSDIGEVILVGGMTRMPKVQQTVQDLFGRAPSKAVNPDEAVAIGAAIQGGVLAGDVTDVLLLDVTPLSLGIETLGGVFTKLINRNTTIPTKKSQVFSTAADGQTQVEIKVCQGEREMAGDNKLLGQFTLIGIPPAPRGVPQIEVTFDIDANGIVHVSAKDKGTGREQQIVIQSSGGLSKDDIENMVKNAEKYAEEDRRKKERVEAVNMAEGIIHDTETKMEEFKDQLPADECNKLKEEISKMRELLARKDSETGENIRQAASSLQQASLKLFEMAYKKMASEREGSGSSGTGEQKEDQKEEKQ

B1: human GrpEL1 wild type, without its mitochondrial targeting sequence (natural protein, UniProt Q9HAV7 28-217, looked up)
chain: CTATKQKNSGQNLEEDMGQSEQKADPPATEKTLLEEKVKLEEQLKETVEKYKRALADTENLRQRSQKLVEEAKLYGIQAFCKDLLEVADVLEKATQCVPKEEIKDDNPHLKNLYEGLVMTEVQIQKVFTKHGLLKLNPVGAKFDPYEHEALFHTPVEGKEPGTVALVSKVGYKLHGRTLRPALVGVVKEA
notes: GrpEL1, human mitochondrial nucleotide exchange factor; printed mass 25.5 kDa a protomer; Homodimer; no tag removal is described; also called GrpEL1WT; HsGrpEL1; source: E. coli LOBSTR, purified (Ni Sepharose, Strep-Tactin, Superdex 200)
Consider B1, for which the results for the “stoichiometry N” value in data set [1] and in data set [2] were 2 GrpEL1 per mortalin and 2, respectively.

B2: human GrpEL1 Y173A, without its mitochondrial targeting sequence (natural protein, UniProt Q9HAV7 28-217, looked up)
chain: CTATKQKNSGQNLEEDMGQSEQKADPPATEKTLLEEKVKLEEQLKETVEKYKRALADTENLRQRSQKLVEEAKLYGIQAFCKDLLEVADVLEKATQCVPKEEIKDDNPHLKNLYEGLVMTEVQIQKVFTKHGLLKLNPVGAKFDPAEHEALFHTPVEGKEPGTVALVSKVGYKLHGRTLRPALVGVVKEA
notes: GrpEL1, human; Two protomers (GrpEL1-A and GrpEL1-B) were modelled in the Y173A structures; also called HsGrpEL1_(Y173A); source: E. coli LOBSTR, purified as GrpEL1WT (Ni Sepharose, Strep-Tactin, Superdex 200)
With B2, the binding result in data set [3] and in data set [2] was “binds” in each case.
